Legend:
platelet GP1bα = experiment: Platelet pause times and translocation velocities on immobilized A1 under shear flow, parallel-plate flow chamber (Example 1); type: cell-based, human; conditions: as a function of shear rate
Excerpt: To understand the effect of the N-terminal peptide on the function of the A1-domain of vWF, the protein was expressed with (A1-1238) and without the N-terminal peptide (A1-1261). The inventor used a flow chamber to measure the dynamics of platelet interactions with A1-1238 and A1-1261. Each domain variant was immobilized on glass slides with a modified Cu^2+ chelating chemistry that enabled surface capture via the N-terminally fused histidine tag. This method ensured reproducible capture of the proteins eliminating possible structural issues associated with nonspecific immobilization on plastic or glass. The slides were completely inert to platelets. Next, 1 mL of citrated whole blood followed by Tris buffered saline was perfused at low shear to enable platelets to attach to the surface immobilized domains. After red cells were perfused away with buffer, the translocation of the remaining attached platelets over the surfaces was recorded at each shear rate and the velocities and pause times calculated from the coordinate data of each platelet on the surface as described in the methods. […] In addition, the translocation velocities were increased for A1-1238 relative to A1-1261. To determine if this N-terminal sequence could inhibit the catch bond when free in solution, the inventor incubated surface immobilized A1-1261 with excess free peptide and added the free peptide to 1 mL of whole blood and to our perfusion buffer and performed the assay.
Determination of platelet pause times. Determination of platelet pause times A Glycotech† rectangular parallel-plate flow chamber was mounted to slides with a chelated Cu 21 surface obtained from Microsurfaces Inc. # to which the A1-1261 and A1-1238 domains in TBS were immobilized by the 63His-Tag. Citrated whole blood (1 mL) obtained from informed consent of healthy donors with approval from the Baylor College of Medicine institutional review board followed by buffer was perfused through the chamber at 300s21 for A1-1261 and 700s21 for A1-1238 shear rate to attach platelets to the surface immobilized proteins using a syringe driven variable flow rate pump. The shear was increased incrementally and 1 min movies were recorded at 25 frames/s in phase contrast with 232 pixel binning on a Zeiss Axiocam MRm camera attached to a Zeiss Axio Observer D1 inverted microscope. Tracking analysis was performed using Mediacybernetics ImagePro Premier§. The resulting X-Y coordinate data for each platelet track was differentiated into instantaneous velocities using a Savitzky-Golay algorithm (Savitzky:1964) with a five data point window size and a second-order polynomial implemented into a Mathamatica notebook. These platelet tracks were retained for statistical analysis if the platelet was present for at least 1 s and travelled a total distance greater than 1 lm. Distance travelled in pixels was converted to lm given the camera pixel size=6.45 μm^2, pixel binning, and microscope magnification=400×. Pause times were determined by the amount of time (seconds) a platelets velocity was =0±0.13 μm/s, within the noise. Pause times for all platelet tracks are reported as the mean of the medians. Examples of this analysis for individual platelets and for multiple platelets are provided in the Supporting Information.
Frame by frame platelet trajectory analysis. Tracking coordinates of individual platelets in units of pixels were exported from ImagePro Premier as a text file and imported into a Mathematica notebook that calculates a Savitzky-Golay first derivative of the total distance traveled over time (Savitzky:1964). The distance was calculated from the X and Y coordinates with the following equation.
Pause times were determined from the length of time the platelet velocity remained within 0±4 pixel/sec=0.129 μm/sec as illustrated in FIG. 8B. Median pause times were calculated from velocity time profiles for all platelet tracks, stored in a list and translated to histograms for multiple platelets. […]

platelet GPIbα = biological target: T1, platelet GPIbα (Homo sapiens, UniProt P07359); experiment: Platelet adhesion to surface captured disulfide-intact A1 and RCAM A1 under shear flow (Example 2); type: cell-based
T1 construct: endogenous in cells; host or cells: platelets in citrated whole blood of normal healthy volunteer donors
Method: The interaction of disulfide-intact A1 and of RCAM A1 with platelets was studied by immobilizing the proteins via the 6×His-Tag on Cellix biochips in which the internal channel surface was coated with a Cu2+ chelating chemistry. A 5 μM concentration of protein was immobilized in the biochip and citrated whole blood was perfused at a shear rate of 800 s−1 (FIG. 11B). This perfusion was followed by TBS buffer and after red blood cells cleared the channel, the shear was decremented to 100 s−1 or incremented to 9000 s−1 every two minutes at logarithmic intervals. Surface bound platelets were allowed to equilibrate at a given shear rate for 50 s and a 60 s video at 24 frames per second was recorded and analyzed as described in the methods. The internal channel surface lacking immobilized A1 domain was completely inert to platelets.
At each shear rate, platelet mean pause times and mean translocation velocities were calculated from the X-Y trajectories of moving platelets as described in the methods. Approximately 1000 platelet trajectories were analyzed at each shear rate (FIGS. 11B to 11D). The mean pause times were also calculated from the pause time survival fraction obtained from the cumulative integral of the pause time distribution (FIG. 11B) (Thomas:2006). The survival fraction exponentially decreases with faster decay rates as shear increases. Fitting the survival fraction with a bi-exponential decay function results in the apparent rate constants and amplitudes as a function of shear rate (FIG. 11C).
The determination and analysis of platelet pause times and instantaneous translocation velocities over surface captured A1 and RCAM A1 was performed as previously described (Tischer:2013). Here, the inventor used the Cellix Mims Evo syringe pump controlled by VenaFluxAssay (www.cellixltd.com). Vena8™ CGS biochips were custom designed with 800 μm width by 80 μm height microchannels bonded to glass slides with a Cu^2+ chelated PEG surface serviced by Microsurfaces Inc. (www.proteinslides.com/histag.html) to which the A1 and RCAM A1 in TBS were captured by the 6×His-Tag at a total concentration of 5 μM. Citrated whole blood was obtained from the informed consent of healthy volunteer donors with approval from the Mayo Clinic Institutional Review Board and 100 μL was perfused over the surface captured A1 domains at […]. The shear was increased or decreased in a stepwise manner to measure the dynamics of platelet adhesion at high and low shear. After allowing the flow chamber to equilibrate for 50 s at each shear rate, 1 min movies were recorded at 24 frames per second in phase contrast at 200× magnification with 2×2 pixel binning on a Zeiss AxioCam Mrm camera (6.45 μm/px) attached to a Zeiss Axio Observer.D1 inverted microscope. Tracking analysis was performed using MediaCybernetics ImagePro® Premier (www.mediacy.com/index.aspx?page=IP\_Premier) The distance travelled in the direction of flow was calculated from the coordinate data for each platelet as a function of time using √{square root over ((xt−x0)^2)}, where x0 is the coordinates of a platelet on the first frame of the movie and xt is the coordinate on subsequent frames of the movie. These trajectories were differentiated into instantaneous velocities using a Savitzky-Golay algorithm (Savitzky:1964) with a five data point window size and a second order polynomial implemented into a Mathematica (www.wolfram.com/mathematica) notebook written in our lab. Trajectories were retained for statistical analysis if the platelet was present for ≧1 s and travelled a total distance greater than 1 Distance travelled in pixels (px) was converted to (μm) using 6.45 μm/px*2/200=0.0645 μm/px. Pause times were determined by the amount of time (sec) a platelets velocity was 0±4 px/s≅0±0.23 μm/s, within the noise. Data are reported as mean velocities and pause times attained by individual platelets averaged over all platelets analyzed. […]

Shear rate at which platelets detach from the surface immobilized domain (platelet GPIbα; listed as A1): less than 300 s−1 | Shear rate at which platelets detach from the surface immobilized domain (platelet GPIbα; listed as disulfide-intact A1): ≤ 300 s⁻¹ | Mean platelet pause time (platelet GPIbα; shear rate 530 s−1): ~0.75 s | Mean platelet pause time (platelet GPIbα; shear rate 1025 s−1): ~0.9 s
Substance: A1-1238: Recombinant human vWF A1 domain, amino acids Q1238-P1471, with N-terminal 6×His-Tag, disulfide intact
Platelet translocation velocities on immobilized domain (comparison) (platelet GP1bα): increased

Source: patent US20150160214A1, “Quantitation of Cellular Adhesion Dynamics Across Immobilized Receptors Under Rheological Shear Flow” (Mayo Foundation for Medical Education and Research, priority 2013, published 2015)
